# In the supplement of paper PMC10724198:
# ± gives the standard deviation of the averaged measurements.
# System: Saccharomyces cerevisiae
# Assay: protein stability index of tFT-peptide fusion (C-terminal peptide) (PSI (0-1 scale)); higher = more stable (slower turnover)
# Conditions: genetic background: wild type; temperature: 30 C
# 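Note: PSI is a weighted mean of sequencing reads over stability bins, variants kept only with over 10 reads, mCherry proximal and sfGFP distal, peptide attached via GGGS linker.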
row,Sequence,protein stability index
1,VPPPPPCTIPFP,0.678 ± 0.07
2,SASSLPVVAARA,0.544 ± 0.021
3,KKQKKHKKEKEK,0.638 ± 0.019
4,DVGSPFSISVQS,0.647 ± 0.045
5,VLPAGAGKGCVG,0.653 ± 0.052
6,NTGGVTRVIGCV,0.704 ± 0.029
7,DPISNVDVTKIR,0.6571 ± 0.0044
8,GHEQIISIKGIK,0.73 ± 0.049
9,ESGPQWLGTFVT,0.733 ± 0.0094
10,PHLDSPGPLAII,0.682 ± 0.023
11,PTFRLGGYYRKS,0.703 ± 0.055
12,TLIEWSAKGCRR,0.693 ± 0.047
13,CGEWSWAGVGVR,0.702 ± 0.032
14,TGGRRKNCIIKK,0.688 ± 0.062
15,SRKIAPNGTATL,0.706 ± 0.012
16,CGALKGKKPYGV,0.715 ± 0.057
17,LPAPRFLVPAFL,0.637 ± 0.025
18,RTTKRKIKIIGI,0.709 ± 0.013
19,TPGGRTLATALR,0.676 ± 0.018
20,RNRVVPITARLT,0.545 ± 0.014
21,SGPSIPCFLYSS,0.698 ± 0.013
22,HIKAEKRKKKTS,0.608 ± 0.024
23,VLSPLIGRICGH,0.658 ± 0.01
24,RARTKGRMRTCR,0.749 ± 0.15
25,SAGHHACRRYAG,0.683 ± 0.037
26,EGLSYSFGDCPM,0.754 ± 0.03

row,Sequence,protein stability index
1,KKTIENEGRNIL,0.645 ± 0.0069
2,LTWVVNSGKGRC,0.918 ± 0.087
3,PPPSPAPCPPSS,0.777 ± 0.043
4,PSLSPYPLQPRY,0.751 ± 0.034
5,SLVPFSPPRSPP,0.689 ± 0.083
6,PLPRTPTLPTPE,0.635 ± 0.036
7,FNTRDTFLYTCR,0.789 ± 0.11
8,PPPPRPLPLPTT,0.751 ± 0.056
9,PTRGLTARPFLW,0.62 ± 0.042
10,PIFQGTCPSTFV,0.675 ± 0.02
11,GGRGGGGEMGGR,0.651 ± 0.04
12,SCFVWAFRCWGF,0.621 ± 0.043
13,QKQKKKINIEKR,0.731 ± 0.017
14,VVGCCVTKGGGA,0.667 ± 0.048
15,PPPPRPPPQSPS,0.724 ± 0.021
16,CQDDGTAKRHKG,0.676 ± 0.061
17,KICHTKKKNKKK,0.769 ± 0.046
18,RGKGGKKRRKRD,0.648 ± 0.07
19,LSPDSLGVLVEY,0.6272 ± 0.0058
20,GKINPKMEIWIE,0.7011 ± 0.0049
21,VGGVVWIGGVVG,0.667 ± 0.074
22,RDKKMKHIKDKR,0.79 ± 0.11
23,GAIVLMSCRNVI,0.634 ± 0.04
24,FDLTFPPPPLPF,0.719 ± 0.052
25,TVRLAPCPLSDT,0.744 ± 0.075
26,LRCLTIILYSMV,0.549 ± 0.033

row,Sequence,protein stability index
1,SCLPPSRPSSAL,0.629 ± 0.019
2,AGWGGIWGLWVL,0.715 ± 0.11
3,HPLPSSHLPPRP,0.75 ± 0.15
4,LHDICADRSSIL,0.739 ± 0.009
5,DTSGNQLQDPDI,0.706 ± 0.029
6,VFPPTPPTVPRG,0.727 ± 0.0077
7,LCVAFWLGLPTT,0.598 ± 0.011
8,NTSKEDENKARI,0.707 ± 0.019
9,AVISSSFFGSSY,0.721 ± 0.076
10,WFCDNHRSFGWG,0.747 ± 0.07
11,GTVGRPNATGKV,0.742 ± 0.088
12,PASPCTPLPFSP,0.686 ± 0.04
13,RGPGRTPLGRQL,0.68915 ± 0.00044
14,VSEFTSHQYDSE,0.746 ± 0.048
15,GGELVKGWGSRV,0.678 ± 0.072
16,SCLSGALPPFLA,0.668 ± 0.042
17,AGGGPGLEARSL,0.612 ± 0.017
18,FEIVARTYNVDT,0.666 ± 0.023
19,RQYARKKKKVRN,0.683 ± 0.025
20,ASPALPAPRSAP,0.704 ± 0.057
21,FPRHPPPFPRPT,0.681 ± 0.031
22,RNLCHILRHERT,0.708 ± 0.088
23,YCMRPLCLEMFR,0.682 ± 0.016
24,PPTPSAPHRTRI,0.732 ± 0.026
25,STLPTHQLPPHS,0.624 ± 0.022
26,DFLDPLQDEWPC,0.805 ± 0.039

row,Sequence,protein stability index
1,TGVCKGMRWRGV,0.683 ± 0.045
2,GAKGRGKERRGK,0.666 ± 0.051
3,FRIFGFLVCPIM,0.6257 ± 0.0038
4,SSPSPPRPPAPF,0.704 ± 0.091
5,ERGAEGKKEPEK,0.6534 ± 0.0061
6,GLCRVANGGTER,0.695 ± 0.018
7,PSCPAPPAARPL,0.74 ± 0.11
8,PPPLLPVPQPLF,0.672 ± 0.087
9,GCAFVVLLSRGF,0.604 ± 0.083
10,SPGARRRGGAGR,0.659 ± 0.047
11,SCKARPLVAASD,0.66 ± 0.044
12,GFSRLTPDQRQK,0.7373 ± 0.0063
13,VGFRMAMVVGGL,0.519 ± 0.026
14,GSRGGPVGEAAG,0.665 ± 0.012
15,GVMCRTGSGMVM,0.711 ± 0.021
16,GVGGGGRLMCGV,0.667 ± 0.04
17,TRECGRLRQAET,0.723 ± 0.067
18,IRSLSGPLSRTF,0.673 ± 0.076
19,LGWGRGGPLSGG,0.6937 ± 0.0018
20,PPHASRAPPFPR,0.671 ± 0.047
21,RQRWLSELSKAL,0.712 ± 0.083
22,MVISTRARCMFF,0.6727 ± 0.0059
23,SVSGTPLRALLH,0.622 ± 0.01
